*1 amine or outer side, *2 acyl side, *3 side chain or, on linkers, in order; H or OH if unused. Bridges are numbered along the chain shown (N, C = ends). [ ]: non-standard residue; d: D form. The star is where a group is joined. C20 diacid = O=C(O)CCCCCCCCCCCCCCCCCCC(=O)*; γGlu = O=C(O)[C@H](CCC(=O)[*:2])N[*:1]; Hyp = O=C(O)[C@@H]1C[C@@H](O)CN1; NMeI = CC[C@H](C)[C@H](NC)C(=O)O; Sar = CNCC(=O)O

Results on 3 molecules are retold here after patent US20160272693A1 (ZEALAND PHARMA A S, published 2016).

This experiment concerns the target T1, human amylin receptor 3 (hAMYR3), hCTR2 co-expressed with human receptor activity modifying protein 3 (hRAMP3) (human, UniProt P30988 25-474; O60896 24-148).
T1 sequence (looked up) 1: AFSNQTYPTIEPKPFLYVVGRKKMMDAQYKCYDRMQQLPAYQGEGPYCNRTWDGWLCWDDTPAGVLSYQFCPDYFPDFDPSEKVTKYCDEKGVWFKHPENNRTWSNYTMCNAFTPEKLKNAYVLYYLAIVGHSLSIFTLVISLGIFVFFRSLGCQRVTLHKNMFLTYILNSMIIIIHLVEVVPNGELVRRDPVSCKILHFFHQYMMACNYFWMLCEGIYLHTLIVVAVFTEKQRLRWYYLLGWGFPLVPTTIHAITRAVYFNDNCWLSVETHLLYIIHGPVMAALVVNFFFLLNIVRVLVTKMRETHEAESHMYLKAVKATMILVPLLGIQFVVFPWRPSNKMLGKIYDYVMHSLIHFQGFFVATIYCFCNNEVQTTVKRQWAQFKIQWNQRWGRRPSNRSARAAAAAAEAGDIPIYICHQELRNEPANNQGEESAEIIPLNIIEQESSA
T1 sequence (looked up) 2: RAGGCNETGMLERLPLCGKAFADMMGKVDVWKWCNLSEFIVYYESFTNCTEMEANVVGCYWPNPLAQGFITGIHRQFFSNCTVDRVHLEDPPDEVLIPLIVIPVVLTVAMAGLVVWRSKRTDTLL
Description: cell-based or functional assay.

B1: [19CD]-isoGlu-R-C( )-GTAT-C( )-ATERLAHFLNRSSF-Gly(Me)-A-Ile(Me)-LSSTEVGSFTP-NH2 (Compd. 40) (peptide)
peptide: {C20 diacid}-[γGlu]RCGTATCATERLAHFLNRSSF[Sar]A[NMeI]LSSTEVGSFTP-NH2
modifications: disulfide 3-8
SMILES: CC[C@H](C)[C@@H](C(=O)N[C@@H](CC(C)C)C(=O)N[C@@H](CO)C(=O)N[C@@H](CO)C(=O)N[C@H](C(=O)N[C@@H](CCC(=O)O)C(=O)N[C@H](C(=O)NCC(=O)N[C@@H](CO)C(=O)N[C@@H](Cc1ccccc1)C(=O)N[C@H](C(=O)N1CCC[C@H]1C(N)=O)[C@@H](C)O)C(C)C)[C@@H](C)O)N(C)C(=O)[C@H](C)NC(=O)CN(C)C(=O)[C@H](Cc1ccccc1)NC(=O)[C@H](CO)NC(=O)[C@H](CO)NC(=O)[C@H](CCCNC(=N)N)NC(=O)[C@H](CC(N)=O)NC(=O)[C@H](CC(C)C)NC(=O)[C@H](Cc1ccccc1)NC(=O)[C@H](Cc1c[nH]cn1)NC(=O)[C@H](C)NC(=O)[C@H](CC(C)C)NC(=O)[C@H](CCCNC(=N)N)NC(=O)[C@H](CCC(=O)O)NC(=O)[C@@H](NC(=O)[C@H](C)NC(=O)[C@@H]1CSSC[C@H](NC(=O)[C@H](CCCNC(=N)N)NC(=O)CC[C@H](NC(=O)CCCCCCCCCCCCCCCCCCC(=O)O)C(=O)O)C(=O)NCC(=O)N[C@@H]([C@@H](C)O)C(=O)N[C@@H](C)C(=O)N[C@@H]([C@@H](C)O)C(=O)N1)[C@@H](C)O
B1: the “hAMYR3 EC50 (nM); cAMP induction” value amounted to 0.19 nM.

B2: [19CD]-isoGlu-R-C( )-GTAT-C( )-ATERLADFLTRSSF-Gly(Me)-A-Ile(Me)-LSSTEVGSFT-Hyp-NH2 (Compd. 42) (peptide)
peptide: {C20 diacid}-[γGlu]RCGTATCATERLADFLTRSSF[Sar]A[NMeI]LSSTEVGSFT[Hyp]-NH2
modifications: disulfide 3-8
SMILES: CC[C@H](C)[C@@H](C(=O)N[C@@H](CC(C)C)C(=O)N[C@@H](CO)C(=O)N[C@@H](CO)C(=O)N[C@H](C(=O)N[C@@H](CCC(=O)O)C(=O)N[C@H](C(=O)NCC(=O)N[C@@H](CO)C(=O)N[C@@H](Cc1ccccc1)C(=O)N[C@H](C(=O)N1C[C@H](O)C[C@H]1C(N)=O)[C@@H](C)O)C(C)C)[C@@H](C)O)N(C)C(=O)[C@H](C)NC(=O)CN(C)C(=O)[C@H](Cc1ccccc1)NC(=O)[C@H](CO)NC(=O)[C@H](CO)NC(=O)[C@H](CCCNC(=N)N)NC(=O)[C@@H](NC(=O)[C@H](CC(C)C)NC(=O)[C@H](Cc1ccccc1)NC(=O)[C@H](CC(=O)O)NC(=O)[C@H](C)NC(=O)[C@H](CC(C)C)NC(=O)[C@H](CCCNC(=N)N)NC(=O)[C@H](CCC(=O)O)NC(=O)[C@@H](NC(=O)[C@H](C)NC(=O)[C@@H]1CSSC[C@H](NC(=O)[C@H](CCCNC(=N)N)NC(=O)CC[C@H](NC(=O)CCCCCCCCCCCCCCCCCCC(=O)O)C(=O)O)C(=O)NCC(=O)N[C@@H]([C@@H](C)O)C(=O)N[C@@H](C)C(=O)N[C@@H]([C@@H](C)O)C(=O)N1)[C@@H](C)O)[C@@H](C)O
For B2, the “hAMYR3 EC50 (nM); cAMP induction” value was 0.34 nM.

B3: [19CD]-isoGlu-R-C( )-GTAT-C( )-ATERLADFLTRSSF-Gly(Me)-A-Ile(Me)-LSSTEVGSST-Hyp-NH2 (Compd. 41) (peptide)
peptide: {C20 diacid}-[γGlu]RCGTATCATERLADFLTRSSF[Sar]A[NMeI]LSSTEVGSST[Hyp]-NH2
modifications: disulfide 3-8
SMILES: CC[C@H](C)[C@@H](C(=O)N[C@@H](CC(C)C)C(=O)N[C@@H](CO)C(=O)N[C@@H](CO)C(=O)N[C@H](C(=O)N[C@@H](CCC(=O)O)C(=O)N[C@H](C(=O)NCC(=O)N[C@@H](CO)C(=O)N[C@@H](CO)C(=O)N[C@H](C(=O)N1C[C@H](O)C[C@H]1C(N)=O)[C@@H](C)O)C(C)C)[C@@H](C)O)N(C)C(=O)[C@H](C)NC(=O)CN(C)C(=O)[C@H](Cc1ccccc1)NC(=O)[C@H](CO)NC(=O)[C@H](CO)NC(=O)[C@H](CCCNC(=N)N)NC(=O)[C@@H](NC(=O)[C@H](CC(C)C)NC(=O)[C@H](Cc1ccccc1)NC(=O)[C@H](CC(=O)O)NC(=O)[C@H](C)NC(=O)[C@H](CC(C)C)NC(=O)[C@H](CCCNC(=N)N)NC(=O)[C@H](CCC(=O)O)NC(=O)[C@@H](NC(=O)[C@H](C)NC(=O)[C@@H]1CSSC[C@H](NC(=O)[C@H](CCCNC(=N)N)NC(=O)CC[C@H](NC(=O)CCCCCCCCCCCCCCCCCCC(=O)O)C(=O)O)C(=O)NCC(=O)N[C@@H]([C@@H](C)O)C(=O)N[C@@H](C)C(=O)N[C@@H]([C@@H](C)O)C(=O)N1)[C@@H](C)O)[C@@H](C)O
In the case of B3, the “hAMYR3 EC50 (nM); cAMP induction” value turned out to be 0.34 nM.
